# Results taken from US20050106653A1.
# T1: GST fusion protein containing amino acids 449-664 of rat IRS-1 (rIRS-1 449-664), no PKC pretreatment
# T1 chain: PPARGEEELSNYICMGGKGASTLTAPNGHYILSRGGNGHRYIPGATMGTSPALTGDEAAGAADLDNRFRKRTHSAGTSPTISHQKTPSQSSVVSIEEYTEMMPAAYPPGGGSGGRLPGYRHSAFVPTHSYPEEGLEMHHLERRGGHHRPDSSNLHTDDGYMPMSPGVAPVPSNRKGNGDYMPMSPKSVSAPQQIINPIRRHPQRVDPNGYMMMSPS
# B1: recombinant human protein kinase C-ζ (protein)
# chain: MPSRTGPKMEGSGGRVRLKAHYGGDIFITSVDAATTFEELCEEVRDMCRLHQQHPLTLKWVDSEGDPCTVSSQMELEEAFRLARQCRDEGLIIHVFPSTPEQPGLPCPGEDKSIYRRGARRWRKLYRANGHLFQAKRFNRRAYCGQCSERIWGLARQGYRCINCKLLVHKRCHGLVPLTCRKHMDSVMPSQEPPVDDKNEDADLPSEETDGIAYISSSRKHDSIKDDSEDLKPVIDGMDGIKISQGLGLQDFDLIRVIGRGSYAKVLLVRLKKNDQIYAMKVVKKELVHDDEDIDWVQTEKHVFEQASSNPFLVGLHSCFQTTSRLFLVIEYVNGGDLMFHMQRQRKLPEEHARFYAAEICIALNFLHERGIIYRDLKLDNVLLDADGHIKLTDYGMCKEGLGPGDTTSTFCGTPNYIAPEILRGEEYGFSVDWWALGVLMFEMMAGRSPFDIITDNPDMNTEDYLFQVILEKPIRIPRFLSVKASHVLKGFLNKDPKERLGCRPQTGFSDIKSHAFFRSIDWDLLEKKQALPPFQPQITDDYGLDNFDTQFTSEPVQLTPDDEDAIKRIDQSEFEGFEYINPLLLSTEESV
# Assays:
# [1] = biological target: regulatory p85α subunit of bovine PI 3-kinase (bovine) (UniProt P23727); test: SPR competition: 100 nM p85α with soluble peptide over the same peptide immobilised
# Chain of regulatory p85α subunit of bovine PI 3-kinase (bovine) (P23727 whole entry, the tested form may be a part): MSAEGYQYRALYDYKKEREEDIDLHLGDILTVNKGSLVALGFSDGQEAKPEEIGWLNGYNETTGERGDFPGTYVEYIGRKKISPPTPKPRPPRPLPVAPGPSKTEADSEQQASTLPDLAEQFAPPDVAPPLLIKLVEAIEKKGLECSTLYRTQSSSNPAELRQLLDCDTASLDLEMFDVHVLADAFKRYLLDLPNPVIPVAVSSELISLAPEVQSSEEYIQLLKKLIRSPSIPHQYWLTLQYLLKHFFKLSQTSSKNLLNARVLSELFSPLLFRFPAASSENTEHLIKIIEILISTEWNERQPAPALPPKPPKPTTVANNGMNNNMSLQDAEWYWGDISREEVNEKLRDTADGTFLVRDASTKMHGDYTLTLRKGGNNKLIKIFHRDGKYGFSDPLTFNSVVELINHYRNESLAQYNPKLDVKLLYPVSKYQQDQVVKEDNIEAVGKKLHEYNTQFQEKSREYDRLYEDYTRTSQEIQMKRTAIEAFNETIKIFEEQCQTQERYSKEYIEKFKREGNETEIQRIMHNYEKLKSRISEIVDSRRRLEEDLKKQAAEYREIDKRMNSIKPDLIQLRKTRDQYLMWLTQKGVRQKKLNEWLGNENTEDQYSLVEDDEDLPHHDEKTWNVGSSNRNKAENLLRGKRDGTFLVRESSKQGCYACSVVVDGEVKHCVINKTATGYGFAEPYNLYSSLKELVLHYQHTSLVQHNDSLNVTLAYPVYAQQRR
# [2] = biological target: regulatory p85α subunit of bovine PI 3-kinase (bovine) (UniProt P23727); test: SPR (Biacore) competition: 100 nM p85α preincubated with soluble peptide, injected over the same peptide immobilised; two site competition fit, first value
# [3] = biological target: regulatory p85α subunit of bovine PI 3-kinase (bovine) (UniProt P23727); test: SPR (Biacore) competition: 100 nM p85α preincubated with soluble peptide, injected over the same peptide immobilised; two site competition fit, second value
# [4] = biological target: rIRS-1 449-664 S570A GST fusion protein preincubated with PKC-ζ, then tyrosine phosphorylated by insulin receptor (rat) (UniProt P35570); test: GST pull-down and immunoblot; against the insulin-stimulated control without PKC-ζ set as 100%
# [5] = biological target: rIRS-1 449-664 S612A GST fusion protein preincubated with PKC-ζ, then tyrosine phosphorylated by insulin receptor (rat) (UniProt P35570); test: as above
# [6] = biological target: rIRS-1 449-664 GST fusion protein preincubated with PKC from rat brain (PKC-rb), then tyrosine phosphorylated by insulin receptor (rat) (UniProt P35570); test: GST pull-down and immunoblot; against insulin-stimulated rIRS-1 449-664 without PKC set as 100%
# [7] = biological target: rIRS-1 449-664 GST fusion protein preincubated with PKC-ζ, then tyrosine phosphorylated by insulin receptor (rat) (UniProt P35570); test: GST pull-down and immunoblot; against insulin-stimulated rIRS-1 449-664 without PKC-ζ set as 100%
# [8] = biological target: GST fusion protein containing amino acids 449-664 of rat IRS-1 (rIRS-1 449-664), no PKC pretreatment (rat) (UniProt P35570); test: cell-based or functional assay
# [9] = biological target: rIRS-1 449-664 GST fusion protein preincubated with PKC from rat brain (PKC-rb), then tyrosine phosphorylated by insulin receptor (rat) (UniProt P35570); test: cell-based or functional assay
# [10] = biological target: rIRS-1 449-664 GST fusion protein preincubated with PKC-ζ, then tyrosine phosphorylated by insulin receptor (rat) (UniProt P35570); test: cell-based or functional assay
# [11] = biological target: rIRS-1 449-664 S570A GST fusion protein preincubated with PKC-ζ, then tyrosine phosphorylated by insulin receptor (rat) (UniProt P35570); test: cell-based or functional assay
# [12] = biological target: rIRS-1 449-664 S612A GST fusion protein preincubated with PKC-ζ, then tyrosine phosphorylated by insulin receptor (rat) (UniProt P35570); test: cell-based or functional assay
# [13] = biological target: T1, GST fusion protein containing amino …
molecule,measurement,setting,value
"IRS-1 peptide pY608 (DDGpYMPMSPGV), amino acids 605 to 615 of rat IRS-1 with phosphotyrosine 608",peptide concentration for complete inhibition,[1],10 µM
same,IC50,[2],0.26 µM
same,IC50,[3],16.6 µM
regulatory p85α subunit of bovine PI 3-kinase (from UniProt P23727 1-724),"p85α binding, % of control",[4],43 % of control
same,"p85α binding, % of control",[5],28 % of control
same,inhibition of the association of p85α,[6],49%
same,inhibition of p85α binding,[7],81%
"insulin receptor, WGA-purified from rat liver, insulin-stimulated and autophosphorylated (from UniProt P15127 27-1383)","insulin-stimulated tyrosine phosphorylation of rIRS-1^449-664, fold over basal",[8],8.8 fold
same,reduction of insulin-stimulated tyrosine phosphorylation,[9],27%
same,inhibition of tyrosine phosphorylation,[10],46%
same,reduction of tyrosine phosphorylation by IR after PKC-ζ pretreatment,[10],30 to 40%
same,reduction of tyrosine phosphorylation by IR after PKC-ζ pretreatment,[11],30 to 40%
same,reduction of tyrosine phosphorylation by IR after PKC-ζ pretreatment,[12],30 to 40%
"IRS-1 peptide pY608-pS612 (DDGpYMPMpSPGV), amino acids 605 to 615 of rat IRS-1 with phosphotyrosine 608 and phosphoserine 612",peptide concentration for complete inhibition,[1],10 µM
same,IC50,[2],0.15 µM
same,IC50,[3],2.88 µM
B1,"32P incorporation, SDS-PAGE and autoradiography",[13],a prominent phosphorylation of rIRS-1^449-664 by PKC became detectable
same,phosphopeptide mapping by HPLC of wild type and S570A,[13],serine 570 of IRS-1 is a novel phosphorylation site targeted by PKC-ζ
